Where two headings read alike, the source gives them in different places.

Experiment [1] deals with T1, CD33 recombinant ectodomain (His-tagged) (Homo sapiens, UniProt P20138).
T1 construct: CD33 (Siglec-3), human, recombinant ectodomain; The methods name the catalogue number for the immunogen; In SPR it was captured by its His tag on NTA and then cross-linked with EDC/NHS; also called Siglec-3; extracellular domain (ECD) of human CD33; source: bought: SinoBiological #12238-H08H; not shown: His tag, C-terminal, kept
T1 sequence (P20138 18-259): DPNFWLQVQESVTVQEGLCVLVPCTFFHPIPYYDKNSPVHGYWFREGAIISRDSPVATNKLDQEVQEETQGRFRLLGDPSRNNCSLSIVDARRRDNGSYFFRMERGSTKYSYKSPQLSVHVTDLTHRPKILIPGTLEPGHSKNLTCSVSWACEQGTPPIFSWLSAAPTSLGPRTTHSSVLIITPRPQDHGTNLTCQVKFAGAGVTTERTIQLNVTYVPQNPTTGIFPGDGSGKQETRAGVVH
The experiment is described as follows: ELISA; CD33-coated plates; SdAbs titrated and detected with anti-HA HRP; relative affinities (EC50).

For experiment [2], the target named is T1, CD33 recombinant ectodomain (His-tagged). The experiment in a line: SPR; Biacore X100, NTA chip; His-tagged CD33 ectodomain captured on nickel, cross-linked with EDC/NHS, nickel stripped with EDTA (388 RU); SdAbs as analytes at 1,000-12.3 nM; single-cycle kinetics; HBS-EP+; 10 uL/min, contact 300 s, dissociation 600 s; 1:1 binding model. On the technique in general: In SPR one partner is held on a chip, and binding of the other changes the refractive index at the surface.

Experiment [3] has the same target.
The target of experiment [4] is CD33 recombinant ectodomain (His-tagged) (human) (UniProt P20138). The experiment is described as follows: SPR; Biacore X100, NTA chip; His-tagged CD33 ectodomain captured on nickel, cross-linked with EDC/NHS, nickel stripped with EDTA (388 RU); SdAbs as analytes at 1,000-12.3 nM; single-cycle kinetics; HBS-EP+; 10 uL/min, contact 300 s, dissociation 600 s; 1:1 binding model.
CD33 recombinant ectodomain (His-tagged) (human), sequence (P20138 18-259): as above

The target is the same in experiment [5]. The experiment is described as follows: ELISA; CD33-coated plates; SdAbs titrated and detected with anti-HA HRP; relative affinities (EC50). On the technique in general: ELISA stands for enzyme-linked immunosorbent assay.
In experiment [6] the target is T2, Biotinylated CD33 (bio-CD33) (Homo sapiens, UniProt P20138, biotin).
T2 construct: CD33 (Siglec-3), biotinylated
T2 sequence (P20138 whole entry, looked up, tested part not stated): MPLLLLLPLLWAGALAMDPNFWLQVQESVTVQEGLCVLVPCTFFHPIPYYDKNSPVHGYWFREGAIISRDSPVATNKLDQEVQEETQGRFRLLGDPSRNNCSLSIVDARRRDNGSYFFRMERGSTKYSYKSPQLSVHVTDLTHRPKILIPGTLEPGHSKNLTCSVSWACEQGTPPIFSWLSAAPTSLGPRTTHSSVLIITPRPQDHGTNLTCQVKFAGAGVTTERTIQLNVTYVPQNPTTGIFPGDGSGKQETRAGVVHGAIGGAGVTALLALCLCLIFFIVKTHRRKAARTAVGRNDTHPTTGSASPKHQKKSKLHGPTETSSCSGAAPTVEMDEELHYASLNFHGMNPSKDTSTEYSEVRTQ
The experiment is described as follows: BLI; Octet N1, streptavidin SAX2 sensors; bio-CD33 immobilised at 100 nM; in-tandem epitope binning: first antibody 400 nM, then a mixture of 400 nM first and 200 nM second antibody; PBS. The conditions noted are these: both partners purified. (In general: Biolayer interferometry detects binding as a change in optical thickness at a sensor tip.)

B1: Nb8 (VHH)
VHH: EVQLVESGGGLVQDGGSLRLSCAASGRTFSSYVMGWFRQAPGKEREFVAAITWSGGSTYYADSVKGRFTISRDNAKNTVYLQMNSLKPEDTAVYYCAAFELGGGSYYYPDPNEYDYWGQGTQVTVSS
notes: llama VHH; From a phage display library of a llama immunised with CD33; also called SdAb Nb8; source: E. coli expression strains (pETMod, OmpA periplasmic signal), purified (IMAC, IEC)
For B1, the concentration for a half-maximal effect (EC50) in experiment [1] (both partners purified) came to 3.99 nM. In addition, in experiment [2] (both partners purified), the equilibrium dissociation constant (Kd) was determined as 14.4 nM, the koff is 0.000356 s⁻¹ and the on-rate (kon) stood at 24800 M⁻¹ s⁻¹.

B2: Nb1 (VHH)
VHH: QVQLQESGGGLVQVGGSLRLSCAASGRAFSTDIMAWFRQAPGKEREFVAAIKWNADNTYDTNSVKGRFTISRDNAKNTNYLEVNSLKPEDTAVYYCASGFSSRPYSDSDSRKYIYWGQGTQVTVSS
notes: llama VHH; From a phage display library of a llama immunised with CD33; also called SdAb Nb1; source: E. coli expression strains (pETMod, OmpA periplasmic signal), purified (IMAC, IEC)
Turning to B2, the EC50 in experiment [1] (both partners purified) was determined as 6.4 nM. In addition, in experiment [2] (both partners purified), the Kd was 29.9 nM, the off-rate constant (koff) worked out at 0.0011 s⁻¹ and the kon came out at 36800 M⁻¹ s⁻¹.

B3: Nb16 (VHH)
VHH: EVQLVESGGGLVQTGGSLRLSCAASGRTFSPLAMGWFRQAPGREREFVAGITWSGGSLYYGDFVKGRFTISRDAAKNTLYLQMNSLKPEDTAVYYCAARDYSGDSNFQVTRPSEWDHWGQGTQVTVSS
With B3, in experiment [1], the 50% effective concentration (EC50) came out at 1.91 nM. Moreover, in experiment [3], the Kd turned out to be 4.18 nM. In experiment [2], the Kd is 4.18 nM, the koff was determined as 4.64e-05 s⁻¹ and the on-rate constant (kon) turned out to be 11100 M⁻¹ s⁻¹.

B4: Nb3 (VHH)
VHH: EVQLVESGGGLVQAGGSLSLSCAASGRTFSSYVMGWFRQAPGKEREFVAALTWSGGSTYYGDSAKGRFTISRDNAKNTVYLQMNSLKPEDTADYYCAAAALEGGAYHIATMSTYNYWGQGTQVTVSS
notes: llama VHH; From a phage display library of a llama immunised with CD33; also called SdAb Nb3; source: E. coli expression strains (pETMod, OmpA periplasmic signal), purified (IMAC, IEC)
On to B4, for which, in experiment [4], the Kd turned out to be 115 nM, the koff was determined as 0.0017 s⁻¹ and the on-rate (kon) amounted to 14700 M⁻¹ s⁻¹. Further, in experiment [5], the concentration for a half-maximal effect (EC50) came out at 16.7 nM. In experiment [6], the binding result was “binds”.

B5: Nb17 (VHH)
VHH: QVQLQESGGGLVQTGGSLRLSCAVSGSTFSDYVIGWFRQAPGKERDFVAAITWSGGSTYYADSVKGRFIISRDNAKNTVYLQMNSLKPEGTAVYYCAALQLKGGSYYYPAPEEYSYWGQGTQVTVSS
notes: llama VHH; From a phage display library of a llama immunised with CD33; also called SdAb Nb17; source: E. coli expression strains (pETMod, OmpA periplasmic signal), purified (IMAC, IEC)
For B5, the EC50 in experiment [1] (both partners purified) was 4.05 nM. Moreover, in experiment [2] (both partners purified), the Kd was determined as 4.99 nM, the koff worked out at 8.24e-05 s⁻¹ and the kon was 16500 M⁻¹ s⁻¹.

What is called EC50 is the midpoint of the concentration-response curve. A word on the Kd: it is the free concentration of one partner at which half of the binding sites on the other are occupied at equilibrium, for simple one-to-one binding. For orientation: koff means the rate constant with which the complex falls apart. One may read the kon as the second-order rate constant of association.

The values are drawn from PMC11904528, “Discovery and preclinical development of a SdAb-based CAR-T technology for targeting CD33 in AML” (Molecular Therapy Oncology, 2025).
